From patent US11161912B2, “Heparanase-neutralizing monoclonal antibodies” (Technion Research & Development Foundation Limited, priority 2015, dated 2021)
Entries after “also recorded” stand apart in the source; their conditions may differ.

Columns and labels:
[1] = system: heparanase (latent 65 kDa or GS3 constitutively active); assay: Cellular uptake and processing of heparanase in HEK 293 cells (immunoblot); format: cell-based; settings: GS3 1 μg/ml, mAb 10 μg/ml
Excerpt: (§1) Development of heparanase-neutralizing monoclonal antibodies: In order to target heparanase activity even more specifically, a panel of monoclonal antibodies (mAb) directed against the KKDC peptide (Lys158-Asn171) which comprises the substrate (HS)-binding domain of heparanase (Levy-Adam F, et al. 2005, J Biol Chem 280(21):20457-20466) were developed. In order to validate that the resulting antibodies target the heparin/HS binding domain, cellular uptake of latent 65 kDa heparanase in the absence or presence of the various newly generated mAbs was tested. This system appeared most relevant because previous studies have shown that heparanase uptake is HS-dependent (Gingis-Velitski S, et al. 2004. J Biol Chem 279(42):44084-44092). […] Moreover, liver metastasis of ESb cells was inhibited 4-5 fold by mAb 9E8 (FIG. 3C). The availability of highly specific heparanase-neutralizing mAbs led to the conclusion that heparanase enzymatic activity is required for cell invasion and tumor metastasis.
(§2) FIG. 3A. HEK 293 cells were incubated with latent 65 kDa (upper panel) or GS3 constitutively active heparanase (1 μg/ml; third panel) and the indicated mAbs (10 μg/ml). […] The mixture was then applied onto ^35S-labeled ECM-coated dishes and heparanase activity was determined as described above (lower panel). […] Quantification of the extent of CD45 staining is shown graphically in the lower panel. […]

[2] = molecular target: T1, heparanase (latent 65 kDa or GS3 constitutively active) (Homo sapiens, UniProt Q9Y251); assay: as above; format: cell-based; settings: mAb 10 μg/ml
T1 construct: host or cells: added exogenously to HEK 293 cells
T1 sequence (Q9Y251 36-543): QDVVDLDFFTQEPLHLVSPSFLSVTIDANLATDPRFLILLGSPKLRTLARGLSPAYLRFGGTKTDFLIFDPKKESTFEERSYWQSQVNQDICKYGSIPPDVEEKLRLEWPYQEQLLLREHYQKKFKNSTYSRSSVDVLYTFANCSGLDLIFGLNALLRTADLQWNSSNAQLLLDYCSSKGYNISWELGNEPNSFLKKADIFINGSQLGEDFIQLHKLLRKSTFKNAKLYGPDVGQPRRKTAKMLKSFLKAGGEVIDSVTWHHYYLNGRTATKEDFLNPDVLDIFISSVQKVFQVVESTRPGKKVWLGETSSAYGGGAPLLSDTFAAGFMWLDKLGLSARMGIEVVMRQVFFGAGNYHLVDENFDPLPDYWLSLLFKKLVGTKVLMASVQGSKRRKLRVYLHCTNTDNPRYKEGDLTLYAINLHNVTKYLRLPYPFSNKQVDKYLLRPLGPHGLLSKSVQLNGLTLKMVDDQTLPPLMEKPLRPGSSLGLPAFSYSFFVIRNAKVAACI
Excerpt: as §1, §2

CAG myeloma cells = assay: CAG-luciferase myeloma, tail vein inoculation, tumor burden by IVIS imaging; format: in vivo, human; settings: mAb 600 μg/mouse every other day
Experimental: Tumorigenicity. Luciferase-labelled CAG myeloma (5×10^6) or Raji lymphoma (1×10^6) cells were injected into the tail vein of NOD/SCID mice (n=5). Mice were treated with PG545 (20 mg/kg, once weekly), mAb 9E8 (600 μg/mouse) every other day starting one day following cell inoculation and tumor growth was examined by IVIS imaging. At termination, mice were sacrificed, the backbones were excised, fixed in formalin and following de-calcification with 10% EDTA solution were embedded in paraffin and subjected to histological and immunohistochemical analyses essentially as described (Weissmann et al, 2016, Proc Natl Acad Sci USA 113:704-709). […]
IVIS imaging. […] Light emitted from the bioluminescent cells was detected by the IVIS camera system with images quantified for tumor burden using a log-scale color range set at 5×10^4 to 1×10^7 and measurement of total photon counts per second (PPS) using Living Image software (Xenogen) (Weissmann et al, 2016, Proc Natl Acad Sci USA 113:704-709).
FIG. 6A. […] Tumor growth was evaluated by IVIS imaging (left panels). Quantification of luciferase signals is shown graphically in the right panel. […] Bone marrow was harvested from C57Bl/6 mice, cells were collected by centrifugation and heparanase activity was determined as described under ‘Materials and Methods’ (left panel). […]

lymphoma cells = assay: Lymphoma cell death, propidium iodide FACS; format: cell-based; settings: 50 μg/ml, 24 h
Experimental: FIG. 6A. CAG myeloma. NOD/SCID mice (n=5) were inoculated (iv) with CAG-luciferase cells (5×10^6) and mice were treated with mAb 9E8 (600 μg/mouse every other day). Tumor growth was evaluated by IVIS imaging (left panels). Quantification of luciferase signals is shown graphically in the right panel. Note 2-3 fold decrease in tumor growth by the heparanase-neutralizing mAbs. FIG. 6B. Bone marrow was harvested from C57Bl/6 mice, cells were collected by centrifugation and heparanase activity was determined as described under ‘Materials and Methods’ (left panel). Corresponding bones were fixed in formalin and following de-calcification were subjected to immunostaining applying anti-heparanase antibody (right panel). FIG. 6C. The indicated cell line (0.25×10^6) was treated with antibodies 1453or 9E8 (50 μg/ml) for 24 h. Cells were then washed once with FACS buffer (PBS containing 2% FCS), incubated with Propidium Iodide (PI; 1 μg/ml) for 10 min and analyzed using FACS Cyan ADP system (Beckman Coulter, Inc). PI-positivity indicates a disturbed membrane and cell death.

heparanase = molecular target: T2, heparanase (Homo sapiens, UniProt Q9Y251); assay: Intracellular heparanase content of heparanase-transfected 293 cells (immunofluorescence, immunoblot); format: cell-based; settings: cells over-expressing heparanase grown with mAb for two days
T2 sequence (Q9Y251 36-543): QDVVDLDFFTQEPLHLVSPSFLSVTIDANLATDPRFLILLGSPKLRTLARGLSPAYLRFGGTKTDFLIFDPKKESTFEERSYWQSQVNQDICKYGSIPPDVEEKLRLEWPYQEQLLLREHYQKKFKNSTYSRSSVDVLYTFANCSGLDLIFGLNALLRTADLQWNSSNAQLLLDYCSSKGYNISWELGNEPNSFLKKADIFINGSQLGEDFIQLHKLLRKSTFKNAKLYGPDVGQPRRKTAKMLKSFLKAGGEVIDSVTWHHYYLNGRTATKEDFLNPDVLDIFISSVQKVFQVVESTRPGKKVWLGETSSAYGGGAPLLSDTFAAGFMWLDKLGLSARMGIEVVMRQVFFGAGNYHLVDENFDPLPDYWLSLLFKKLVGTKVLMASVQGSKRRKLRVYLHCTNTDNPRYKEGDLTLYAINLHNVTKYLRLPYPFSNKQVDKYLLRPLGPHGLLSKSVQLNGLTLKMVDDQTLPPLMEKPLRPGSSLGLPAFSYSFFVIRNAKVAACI
Experimental: FIG. 3A. HEK 293 cells were incubated with latent 65 kDa (upper panel) or GS3 constitutively active heparanase (1 μg/ml; third panel) and the indicated mAbs (10 μg/ml). The cell medium was aspirated at the time designated and cell lysates were subjected to immunoblotting applying anti-heparanase antibody (upper and third panels). […] Heparanase-transfected 293 cells were grown with control mouse IgM or mAb 9E8 for two days. Cells were then fixed with methanol and subjected to immunofluorescent staining applying anti heparanase antibody (second panel) or lysed and subjected to immunoblotting applying anti-heparanase antibody (fourth panel). Purified recombinant active heparanase (200 ng) was pre-incubated with control mouse IgM ( ? ), mAb 8A5 ( ? ), mAb 9E8 ( ? ), all at 2 μg/ml, for 2 h in serum-free RPMI medium on ice. The mixture was then applied onto ^35S-labeled ECM-coated dishes and heparanase activity was determined as described above (lower panel). FIG. 3B, C. ESb mouse T-lymphoma cells (5×10^5) were inoculated subcutaneously in NOD/SCID mice (n=5) and treated with PG545 (20 mg/kg, once a week) (B) or the indicated mAb (500 μg/mouse every other day) (C). FIG. 3C. […] Quantification of the extent of CD45 staining is shown graphically in the lower panel. […]

B1: mAb 9E8: monoclonal IgM raised against KKDC peptide (Lys158-Asn171) of heparanase; VH SEQ ID NO: 7, VL SEQ ID NO: 8 (antibody)
VH: EVKLLESGGGLVQPGGSLKLSCAASGFDFSRYWMSWVRQAPGKGLEWIGEINPDSSTINYTPSLKDKFIISRDNAKNTLYLQMSKVRSEDTALYYCARRGYEGNYAMDYWGQGTSVTVSSESQSFPNVFPLVSCESPLSDKNLVAMGCLAR
VL: DIVMTQAAPSVPVTPGESVSISCRSSKSLLHSNGNTYLYWFLQRPGQSPQLLIYRMSNLASGVPDRFSGSGSGTAFTLRISRVEAEDVGVYYCMQHLEYPFTFGSGTKLEIKRADAAPTVSIFPPSSEQLTSGGASVVCFL
modifications: IgM constant regions
uptake of constitutively active heparanase (GS3) [1]: inhibited profoundly | uptake and processing of latent 65 kDa heparanase [2]: markedly decreased; also recorded: almost complete inhibition | decrease in tumor burden (luciferase signal) (CAG myeloma cells): 2-3 fold | lymphoma cell death (PI-positivity) (lymphoma cells): do not elicit lymphoma cell death | intracellular content of heparanase (heparanase): marked decrease
